The assay concerns the target T1, Bovine Serum Albumin (bovine, UniProt P02769 25-607).
T1 construct: also called BSA
The experiment in a line: ELISA, antigen coated on plate, phage-displayed Fab.

T1 sequence (P02769 25-607 limits assumed): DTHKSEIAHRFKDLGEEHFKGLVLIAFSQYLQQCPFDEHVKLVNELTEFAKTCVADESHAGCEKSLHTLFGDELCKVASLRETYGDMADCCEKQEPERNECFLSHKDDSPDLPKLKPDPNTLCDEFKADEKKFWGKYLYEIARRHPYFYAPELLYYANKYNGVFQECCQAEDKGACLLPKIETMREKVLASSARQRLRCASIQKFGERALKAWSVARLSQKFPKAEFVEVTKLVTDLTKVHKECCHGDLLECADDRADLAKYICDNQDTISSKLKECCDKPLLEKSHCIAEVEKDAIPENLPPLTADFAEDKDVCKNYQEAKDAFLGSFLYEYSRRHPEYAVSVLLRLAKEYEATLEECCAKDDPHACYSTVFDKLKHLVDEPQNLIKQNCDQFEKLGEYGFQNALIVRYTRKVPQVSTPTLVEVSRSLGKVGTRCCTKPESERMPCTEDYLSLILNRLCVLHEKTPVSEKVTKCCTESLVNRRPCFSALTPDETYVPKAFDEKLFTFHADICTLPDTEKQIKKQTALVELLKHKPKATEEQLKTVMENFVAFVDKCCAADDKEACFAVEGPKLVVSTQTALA

B1: human Fab DDF-RuV1 (Fab, V domains shown)
VH: LEQSGAEVKKPGENLKISCEASGYNFVNHWIGWVRQMPGRGLEWMGRIYPGDSETRFSPSFQGQVTISVDKTLSTASLQWNSLKTSDSATYYCVTLGRWSSWQGGALSWGQGTRVIVSS
VL: ELTQSPDSLAVSLGERATINCKSSQSILSTSKNKNYLAWYQQKPGQPPKLLIYWASTREDGVPDRFSGSGAGTDFSLTISSLQAEDVAVYYCQQRRSWPPTFGQGTKLEIKR
Take B1: the binding result is given as “no binding”.

B2: human Fab DDF-RuV2 (Fab, V domains shown)
VH: LESGGGVVQPGRSLRLSCAASGFTFSTYGMHWVRQAPGKGLEWVAVVSYDGTKEYYSDSVKGRFTISRDNSKKMVYLQMNSLRAEDTAVYYCAKEPPRRGFYWYFDYWGQGTLVTVSS
VL: ELTQSPSSLSASVGDRVTITCRASQDISNYLAWFQQRPGKVPNLLIYAASTLQSGVPSRFSGSGSGTEFTLTISSLQPEDGASYYCQKYDGAPWTFGQGTKVEIKR
As to B2, the binding result was “no binding”.

These data come from patent US20100143376A1 (RIBOVAX BIOTECHNOLOGIES S A, published 2010).
